Data: patent US20010018195

B1: purified recombinant caspase-1 (protein)
chain: NPAMPTSSGSEGNVKLCSLEEAQRIWKQKSAEIYPIMDKSSRTRLALIICNEEFDSIPRRTGAEVDITGMTMLLQNLGYSVDVKKNLTASDMTTELEAFAHRPEHKTSDSTFLVFMSHGIREGICGKKHSEQVPDILQLNAIFNMLNTKNCPSLKDKPKVIIIQACRGDSPGVVWFKDSVGVSGNLSLPTTEEFEDDAIKKAHIEKDFIAFCSSTPDNVSWRHPTMGSVFIGRLIEHMQEYACSCDVEEIFRKVRFSFEQPDGRAQMPTTERVTLTRCFYLFPGH
B2: purified recombinant caspase-6 (His6-tagged) (protein)
chain 1: AFYKREMFDPAEKYKMDHRRRGIALIFNHERFFWHLTLPERRGTCADRDNLTRRFSDLGFEVKCFNDLKAEELLLKIHEVSTVSHADADCFVCVFLSHGEGNHIYAYDAKIEIQTLTGLFKGDKCHSLVGKPKIFIIQACRGNQHDVPVIPLDVVD
chain 2: AASVYTLPAGADFLMCYSVAEGYYSHRETVNGSWYIQDLCEMLGKYGSSLEFTELLTLVNRKVSQRRVDFCKDPSAIGKKQVPCFASMLTKKLHFFPKSN
B3: purified recombinant active caspase-9 (His6-tagged) (protein)
chain: MDEADRRLLRRCRLRLVEELQVDQLWDALLSRELFRPHMIEDIQRAGSGSRRDQARQLIIDLETRGSQALPLFISCLEDTGQDMLASFLRTNRQAAKLSKPTLENLTPVVLRPEIRKPEVLRPETPRPVDIGSGGFGDVGALESLRGNADLAYILSMEPCGHCLIINNVNFCRESGLRTRTGSNIDCEKLRRRFSSLHFMVEVKGDLTAKKMVLALLELAQQDHGALDCCVVVILSHGCQASHLQFPGAVYGTDGCPVSVEKIVNIFNGTSCPSLGGKPKLFFIQACGGEQKDHGFEVASTSPEDESPGSNPEPDATPFQEGLRTFDQLDAISSLPTPSDIFVSYSTFPGFVSWRDPKSGSWYVETLDDIFEQWAHSEDLQSLLLRVANAVSVKGIYKQMPGCFNFLRKKLFFKTS
B4: purified recombinant active caspase-8 (catalytic subunit, Ser 217 to the C-terminus, His6-tagged) (protein)
chain: SESQTLDKVYQMKSKPRGYCLIINNHNFAKAREKVPKLHSIRDRNGTHLDAGALTTTFEELHFEIKPHDDCTVEQIYEILKIYQLMDHSNMDCFICCILSHGDKGIIYGTDGQEAPIYELTSQFTGLKCPSLAGKPKVFFIQACQGDNYQKGIPVETDSEEQPYLEMDLSSPQTRYIPDEADFLLGMATVNNCVSYRNPAEGTWYIQSLCQSLRERCPRGDDILTILTEVNYEVSNKDDKKNMGKQMPQPTFTLRKKLVFPSD

Experiments:
[1] = biological target: GST-XIAP fusion protein, P98170
Chain of GST-XIAP fusion protein, P98170 (P98170 whole entry, the tested form may be a part): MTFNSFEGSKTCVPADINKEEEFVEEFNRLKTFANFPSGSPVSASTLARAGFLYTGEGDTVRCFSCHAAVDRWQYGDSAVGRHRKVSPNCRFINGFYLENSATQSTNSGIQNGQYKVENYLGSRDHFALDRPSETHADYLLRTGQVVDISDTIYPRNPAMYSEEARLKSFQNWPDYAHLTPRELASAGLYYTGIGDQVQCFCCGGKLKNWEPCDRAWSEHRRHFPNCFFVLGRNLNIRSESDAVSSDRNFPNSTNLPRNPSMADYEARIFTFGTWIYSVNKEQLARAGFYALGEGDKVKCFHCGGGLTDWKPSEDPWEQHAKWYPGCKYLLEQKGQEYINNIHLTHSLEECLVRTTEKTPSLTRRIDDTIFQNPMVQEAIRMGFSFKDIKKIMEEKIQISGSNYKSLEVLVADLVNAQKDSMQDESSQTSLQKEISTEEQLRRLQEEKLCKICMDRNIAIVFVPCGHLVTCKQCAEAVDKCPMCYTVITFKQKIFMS

Chain of GST-c-IAP-1, Q13490 (Q13490 whole entry): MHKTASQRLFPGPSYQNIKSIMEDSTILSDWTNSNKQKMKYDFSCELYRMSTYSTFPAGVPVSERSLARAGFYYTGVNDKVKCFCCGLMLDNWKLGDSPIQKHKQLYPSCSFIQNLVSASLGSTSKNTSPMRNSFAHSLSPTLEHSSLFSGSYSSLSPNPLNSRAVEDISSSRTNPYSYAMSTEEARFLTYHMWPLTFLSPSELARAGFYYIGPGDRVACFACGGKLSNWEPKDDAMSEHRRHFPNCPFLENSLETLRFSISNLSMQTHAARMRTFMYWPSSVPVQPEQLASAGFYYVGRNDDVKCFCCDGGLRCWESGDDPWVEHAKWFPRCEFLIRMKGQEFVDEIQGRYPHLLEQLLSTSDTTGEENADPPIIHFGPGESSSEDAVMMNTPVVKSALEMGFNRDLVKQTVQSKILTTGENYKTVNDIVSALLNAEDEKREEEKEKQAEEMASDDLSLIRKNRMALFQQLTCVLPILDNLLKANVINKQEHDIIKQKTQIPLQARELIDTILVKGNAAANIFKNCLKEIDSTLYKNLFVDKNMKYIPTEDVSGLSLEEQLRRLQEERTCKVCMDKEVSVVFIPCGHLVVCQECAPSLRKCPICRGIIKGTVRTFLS
Chain of GST-c-IAP-2, Q13489 (Q13489 whole entry): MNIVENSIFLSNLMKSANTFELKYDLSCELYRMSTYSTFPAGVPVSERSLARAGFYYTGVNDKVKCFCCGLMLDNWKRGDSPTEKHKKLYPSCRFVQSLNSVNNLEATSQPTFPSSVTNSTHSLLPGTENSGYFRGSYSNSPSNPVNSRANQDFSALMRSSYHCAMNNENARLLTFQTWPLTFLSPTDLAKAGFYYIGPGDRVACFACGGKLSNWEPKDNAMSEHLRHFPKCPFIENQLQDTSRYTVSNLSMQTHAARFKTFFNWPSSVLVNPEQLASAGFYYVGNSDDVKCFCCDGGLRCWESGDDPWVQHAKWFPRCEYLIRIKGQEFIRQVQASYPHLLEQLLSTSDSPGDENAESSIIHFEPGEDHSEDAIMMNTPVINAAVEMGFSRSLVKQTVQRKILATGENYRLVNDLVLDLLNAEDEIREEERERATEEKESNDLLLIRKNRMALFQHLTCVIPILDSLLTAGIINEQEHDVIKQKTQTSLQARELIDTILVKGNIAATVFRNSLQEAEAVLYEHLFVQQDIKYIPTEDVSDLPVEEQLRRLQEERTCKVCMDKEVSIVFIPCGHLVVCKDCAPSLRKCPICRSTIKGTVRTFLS

Protein	substrate cleavage by purified caspase [1]	average ratio velocities (vi/vo) of DEVD-AFC hydrolysis [1]	coupled reaction: pro-caspase-3 activation by caspase-9, Ac-DEVD-AFC hydrolysis (GST-c-IAP-1, Q13490)	cleavage of purified pro-caspase-3 by active caspase-9 (immunoblot) [1]	coupled reaction: pro-caspase-3 activation by caspase-9, Ac-DEVD-AFC hydrolysis [1]	coupled reaction: pro-caspase-3 activation by caspase-9, Ac-DEVD-AFC hydrolysis (GST-c-IAP-2, Q13489)
B1	did not interfere with substrate cleavage by caspase-1, caspase-6 or caspase-8, even when added at a 50-fold molar excess					
B2	did not interfere with substrate cleavage by caspase-1, caspase-6 or caspase-8, even when added at a 50-fold molar excess	ratios of about 1.0				
B3			XIAP, c-IAP-1 and c-IAP-2 each efficiently inhibited pro-caspase-3 activation and cleavage of the tetrapeptide substrate	Addition of an equimolar concentration of XIAP relative to caspase-9 strongly inhibited cleavage of pro-caspase-3.	XIAP, c-IAP-1 and c-IAP-2 each efficiently inhibited pro-caspase-3 activation and cleavage of the tetrapeptide substrate	XIAP, c-IAP-1 and c-IAP-2 each efficiently inhibited pro-caspase-3 activation and cleavage of the tetrapeptide substrate
B4	did not interfere with substrate cleavage by caspase-1, caspase-6 or caspase-8, even when added at a 50-fold molar excess	ratios of about 1.0				
